Experimental data taken from publication PMC5663884, “Compositional and expression analyses of the glideosome during the Plasmodium life cycle reveal an additional myosin light chain required for maximum motility” (The Journal of Biological Chemistry, 2017).
Residues, ends and D or L forms follow the SMILES beside them. *: point of attachment. Biotin = O=C1N[C@H]2[C@H](CS[C@H]2CCCCC(=O)*)N1

What was measured:
PfELC = target: T1, PfELC (Plasmodium falciparum, UniProt Q8IJM4); test: biolayer interferometry binding of PfELC to immobilized MyoA neck peptides; parameters: species or system P. falciparum; conditions: 25 °C, pH 8.0, PfELC 0.04–5 μM
T1 construct: His tag (N); made in house; host or cells: E. coli BL21 (DE3)
Description: Overlapping peptides representing amino acids Gln^770–Ala^787, Ala^786–Ser^803, and Ile^801–Gln^818 of the PfMyoA neck were synthesized by Mimotopes with biotin at the N terminus. […] The C termini of the peptides were capped with an amide to remove unnatural charge, apart from peptide 801–818, which was left as a free acid.
P. falciparum ELC binding to peptides was analyzed by biolayer interferometry using the Octet Red system (ForteBio) at 25 °C in 96-well microplates, as described previously ([63]). All assays were performed in 100 mM Tris-HCl, pH 8.0, containing 0.005% (v/v) Tween 20, according to the manufacturer's instructions. A baseline was established over 4 min, and biotinylated peptides (0.4 μg/ml) were loaded onto streptavidin sensors for 10 min. The sensors were washed for 4 min and then incubated with PfELC at different concentrations (0.04–5 μM) for 800 s. The data were analyzed to calculate a dissociation constant (Kd) using non-linear regression with a one-site binding model and a least-squares fit (GraphPad Prism version 6).

MyoB complex = test: immunoprecipitation with GFP-specific antibodies, Western blot: MyoB-GFP; type: binding, P. falciparum; conditions: schizont lysate, probed with anti-PfELC antibodies
Description: (§1) Parasite lysates were precleared by incubation with blocked agarose beads for 1 h, and then the supernatant was incubated with GFP-Trap agarose beads for 2 h at 4 °C with end-over-end rotation. […] Finally, the beads were resuspended in 5 volumes of 2× SDS-PAGE sample buffer and boiled for 5 min before fractionation of the proteins by SDS-PAGE.

MTIP = conditions: 3D7 schizont or merozoite lysate, PfELC-specific antibodies
MyoA = test: immunoprecipitation with GFP-specific antibodies, Western blot: MyoA-GFP; type: binding, P. falciparum; conditions: schizont lysate, probed with anti-PfELC antibodies
Description: as §1

[1] = circular dichroism of recombinant PfELC; type: physicochemical
Description: Far-UV CD spectra were recorded on a Jasco J-815 spectropolarimeter fitted with a cell holder thermostatted by a CDF-426S Peltier unit. CD measurements were made at a protein concentration of 10 μM PfELC in 25 mM Tris-HCl, pH 8.0, 50 mM NaCl using fused silica cuvettes with a 1-mm path length (Hellma). All spectra were recorded with 0.1 nm resolution and baseline-corrected by subtraction of the buffer spectrum. Secondary structure content was estimated using methods described by Sreerama and Woody ([62]).

[2] = target: T2, Recombinant His-tagged PfELC (E. coli) (P. falciparum, UniProt Q8IJM4 1-134); test: BLI; conditions: both partners purified
T2 construct: also called His-PfELC; His-ELC; source: E. coli BL21 (DE3), purified (nickel-nitrilotriacetic acid-agarose)
T2 sequence: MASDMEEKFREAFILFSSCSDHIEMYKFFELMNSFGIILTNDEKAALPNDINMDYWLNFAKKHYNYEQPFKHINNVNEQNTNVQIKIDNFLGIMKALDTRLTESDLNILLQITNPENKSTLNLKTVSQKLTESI

actin = test: optical tweezer-based single-molecule acto-MyoA interaction; type: biochemical
Description: MyoA was expressed in a wheat germ cell-free protein synthesis system (ENDEXT® Technology, CellFree Sciences) ([64]). Recombinant plasmid DNA using recodonized template DNA was amplified using specific primers and cloned into the vector pEU-E01G-TEV-N1 to express N-terminal GST-tagged protein. For the in vitro transcription reaction, 2 μg of DNA was added to a transcription premix (11.5 μl of nuclease-free water, 1× transcription buffer, 2.5 mM NTP mix, 1 unit/μl RNase inhibitor, 1 unit/μl SP6 RNA polymerase) in a total volume of 20 μl and incubated at 37 °C for 6 h, according to the manufacturer's instructions. The quality of mRNA produced was monitored by gel electrophoresis. The bilayer reaction system (CellFree Sciences) was used to translate mRNA into protein. mRNA (10 μl) was added to 10 μl of wheat germ extract (WEPRO® 1240) supplemented with 40 ng/μl creatine kinase and carefully transferred directly below the SUB-AMIX solution (0.3 mM of each L-amino acid, 100 mM potassium acetate, 2.7 mM magnesium acetate, 16 mM disodium creatine phosphate, 0.4 mM spermidine, 1.2 mM ATP, 0.25 mM GTP, 4 mM dithiothreitol, and 30 mM HEPES-KOH (pH 7.8)) and incubated for 20 h at 15–16 °C. Soluble GST-tagged MyoA was purified using glutathione-Sepharose beads (GE Healthcare); supernatant was incubated with the resin for 2 h at 4 °C, followed by extensive washing with 20 mM Tris-HCl, pH 8.0, 250 mM NaCl, 0.5 mM TCEP. The beads were resuspended in 3 volumes of 20 mM Tris-HCl, pH 8.0, 100 mM NaCl, 10 mM reduced glutathione to elute the GST-tagged protein. This was followed by buffer exchange into PBS on a PD10 column (GE Healthcare).
The optical tweezer assay, developed to measure the force and movement produced by individual myosin molecules interacting with an actin filament, was used in the well-established three-bead format with the experimental conditions as described ([65][–][67]). The experimental apparatus is based around a Zeiss inverted microscope, and experiments were performed in a flow-cell chamber created using a microscope slide and coverslip. […] Interactions between the surface-bound MyoA and the actin filament were recorded by monitoring movement of the beads held in the optical tweezers using two 4-quadrant, photodiode detectors. […] Individual events were then automatically detected by measuring changes in amplitude of the imposed triangular oscillation, and event amplitudes were histogrammed. Data were acquired and saved to computer memory using custom software, with a sampling rate of 10 kHz, and later analyzed using IgorPro software (WaveMetrics Inc., Lake Oswego, OR). Individual acto-MyoA force-producing events were identified as described previously ([65]), and the MyoA power-stroke amplitude and kinetics were analyzed by histogram analysis of the data.

[3] = far-UV CD, 10 μM PfELC, 25 mM Tris-HCl pH 8.0, 50 mM NaCl

**Q.** With `CC[C@H](C)[C@H](NC(=O)[C@H](C)NC(=O)[C@H](C)NC(=O)CNC(=O)[C@H](CO)NC(=O)CNC(=O)[C@H](CO)NC(=O)CCCC[C@@H]1SC[C@@H]2NC(=O)N[C@@H]21)C(=O)N[C@@H](CC(C)C)C(=O)N[C@@H](CCCCN)C(=O)N[C@@H](Cc1c[nH]cn1)C(=O)N[C@@H](CCCCN)C(=O)N[C@@H](Cc1ccc(O)cc1)C(=O)N[C@@H](CCCCN)C(=O)N[C@@H](CCC(N)=O)C(=O)N[C@@H](CCCCN)C(=O)N[C@H](C(=O)N[C@@H](CC(N)=O)C(=O)N[C@@H](CCCCN)C(=O)N[C@@H](CC(N)=O)C(=O)N[C@H](C(=O)N1CCC[C@H]1C(=O)N[C@@H](CO)C(N)=O)[C@@H](C)CC)C(C)C` [786–803] (Biotin-SGSGAAILKHKYKQKVNKNIPS-NH2) as the molecule, how does the “binding to PfELC (in words)” value (PfELC) read?
**A.** The value was “binds strongly to PfELC”.

**Q.** For essential light chain [PfELC], which “presence in MyoB-GFP immunoprecipitate” value (MyoB complex) is on record?
**A.** Its value is “none was detected associated with the MyoB complex”.

**Q.** What about the “presence in anti-MTIP immunoprecipitate” value (MTIP) of the same molecule?
**A.** The value was “present with MTIP in the same complex”.

**Q.** And the “presence in MyoA-GFP immunoprecipitate” value (MyoA)?
**A.** The value was “a 14-kDa protein associated with MyoA in the glideosome complex”.

**Q.** What about the “effect of calcium on near- or far-UV CD spectrum” value ([1]; 1 mM calcium ions) of the same molecule?
**A.** The value was “no effect on either the near- or far-UV spectrum”.

**Q.** And the turn content [1, 3]?
**A.** The turn content was 20%.

**Q.** And the α helix content [1, 3]?
**A.** Its α helix content is 32%.

**Q.** And the β sheet content [1, 3]?
**A.** The β sheet content was 17%.

**Q.** For “peptide 770–787: biotinylated PfMyoA neck peptide Gln770–Ala787 with SGSG linker, C-terminal amide (Biotin-SGSGQREKLVEWENCVSVIEAA-NH2; SMILES CC[C@H](C)[C@H](NC(=O)[C@@H](NC(=O)[C@H](CO)NC(=O)[C@@H](NC(=O)[C@H](CS)NC(=O)[C@H](CC(N)=O)NC(=O)[C@H](CCC(=O)O)NC(=O)[C@H](Cc1c[nH]c2ccccc12)NC(=O)[C@H](CCC(=O)O)NC(=O)[C@@H](NC(=O)[C@H](CC(C)C)NC(=O)[C@H](CCCCN)NC(=O)[C@H](CCC(=O)O)NC(=O)[C@H](CCCNC(=N)N)NC(=O)[C@H](CCC(N)=O)NC(=O)CNC(=O)[C@H](CO)NC(=O)CNC(=O)[C@H](CO)NC(=O)CCCC[C@@H]1SC[C@@H]2NC(=O)N[C@@H]21)C(C)C)C(C)C)C(C)C)C(=O)N[C@@H](CCC(=O)O)C(=O)N[C@@H](C)C(=O)N[C@@H](C)C(N)=O; UniProt Q8IDR3 770-787, looked up, fragment)”, which “binding to PfELC (in words)” value (PfELC) is on record?
**A.** The value was “no observable binding”.

**Q.** What about the “binding to PfELC (in words)” value (PfELC; listed as MyoA 770–787) of the same molecule?
**A.** The value was “no binding”.

B1: Biotinylated PfMyoA neck peptide 801–818 (peptide)
peptide: Biotin-SGSGIPSLLRVQAHIRKKMVAQ-OH
SMILES: CC[C@H](C)[C@H](NC(=O)[C@H](Cc1c[nH]cn1)NC(=O)[C@H](C)NC(=O)[C@H](CCC(N)=O)NC(=O)[C@@H](NC(=O)[C@H](CCCNC(=N)N)NC(=O)[C@H](CC(C)C)NC(=O)[C@H](CC(C)C)NC(=O)[C@H](CO)NC(=O)[C@@H]1CCCN1C(=O)[C@@H](NC(=O)CNC(=O)[C@H](CO)NC(=O)CNC(=O)[C@H](CO)NC(=O)CCCC[C@@H]1SC[C@@H]2NC(=O)N[C@@H]21)[C@@H](C)CC)C(C)C)C(=O)N[C@@H](CCCNC(=N)N)C(=O)N[C@@H](CCCCN)C(=O)N[C@@H](CCCCN)C(=O)N[C@@H](CCSC)C(=O)N[C@H](C(=O)N[C@@H](C)C(=O)N[C@@H](CCC(N)=O)C(=O)O)C(C)C
notes: source: synthetic peptide (Mimotopes)
**Q.** For B1, which Kd [2] is on record?
**A.** Its Kd is 320 nM.

B2: Myosin A (protein)
chain: MAVTNEEIKTASKIVRRVSNVEAFDKSGSVFKGYQIWTDISPTIENDPNIMFVKCVVQQGSKKEKLTVVQIDPPGTGTPYDIDPTHAWNCNSQVDPMSFGDIGLLNHTNIPCVLDFLKHRYLKNQIYTTAVPLIVAINPYKDLGNTTNEWIRRYRDTADHTKLPPHVFTCAREALSNLHGVNKSQTIIVSGESGAGKTEATKQIMRYFASSKSGNMDLRIQTAIMAANPVLEAFGNAKTIRNNNSSRFGRFMQLVISHEGGIRYGSVVAFLLEKSRIITQDDNERSYHIFYQFLKGANSTMKSKFGLKGVTEYKLLNPNSTEVSGVDDVKDFEEVIESLKNMELSESDIEVIFSIVAGILTLGNVRLIEKQEAGLSDAAAIMDEDMGVFNKACELMYLDPELIKREILIKVTVAGGTKIEGRWNKNDAEVLKSSLCKAMYEKLFLWIIRHLNSRIEPEGGFKTFMGMLDIFGFEVFKNNSLEQLFINITNEMLQKNFVDIVFERESKLYKDEGISTAELKYTSNKEVINVLCEKGKSVLSYLEDQCLAPGGTDEKFVSSCATNLKENNKFTPAKVASNKNFIIQHTIGPIQYCAESFLLKNKDVLRGDLVEVIKDSPNPIVQQLFEGQVIEKGKIAKGSLIGSQFLNQLTSLMNLINSTEPHFIRCIKPNENKKPLEWCEPKILIQLHALSILEALVLRQLGYSYRRTFEEFLYQYKFVDIAAAEDSSVENQNKCVNILKLSGLSESMYKIGKSMVFLKQEGAKILTKIQREKLVEWENCVSVIEAAILKHKYKQKVNKNIPSLLRVQAHIRKKMVAQ
modifications: left off: GST, N-terminal, kept
notes: GST-tagged PfMyoA expressed in wheat germ cell-free system
**Q.** Which results are given for B2?
**A.** rate constant of event lifetimes (single-exponential least-square fit) (actin; 0.3 μM Mg·ATP): 6.9 s⁻¹; rate constant of event lifetimes (single-exponential least-square fit) (actin; 8 μM Mg·ATP): 53 s⁻¹; second-order rate constant for Mg·ATP binding and dissociating the acto-MyoA rigor complex (actin; from event lifetimes at 0.3 and 8 μM ATP): ~1.5e+07 M⁻¹ s⁻¹; working stroke (power stroke) (actin; shift in mean position of event distribution, 244 acto-MyoA binding events, 2 μM ATP): 3 nm

B3: Biotinylated PfMyoA neck peptide 786–803 (peptide)
peptide: Biotin-SGSGAAILKHKYKQKVNKNIPS-NH2
SMILES: CC[C@H](C)[C@H](NC(=O)[C@H](C)NC(=O)[C@H](C)NC(=O)CNC(=O)[C@H](CO)NC(=O)CNC(=O)[C@H](CO)NC(=O)CCCC[C@@H]1SC[C@@H]2NC(=O)N[C@@H]21)C(=O)N[C@@H](CC(C)C)C(=O)N[C@@H](CCCCN)C(=O)N[C@@H](Cc1c[nH]cn1)C(=O)N[C@@H](CCCCN)C(=O)N[C@@H](Cc1ccc(O)cc1)C(=O)N[C@@H](CCCCN)C(=O)N[C@@H](CCC(N)=O)C(=O)N[C@@H](CCCCN)C(=O)N[C@H](C(=O)N[C@@H](CC(N)=O)C(=O)N[C@@H](CCCCN)C(=O)N[C@@H](CC(N)=O)C(=O)N[C@H](C(=O)N1CCC[C@H]1C(=O)N[C@@H](CO)C(N)=O)[C@@H](C)CC)C(C)C
notes: as for B1
**Q.** For B3, which Kd [2] is on record?
**A.** The Kd was 480 nM.
